Measurements reported in US20080138339A1.

Target: OC183B2 (antigens associated with ovarian carcinoma) (human)
Assay: indirect ELISA of phage-displayed scFv

B1: anti-ovarian carcinoma scFv antibody (scFv)
scFv: EVQLQESGPEVKKPGETVRISCKASGYTFTTAGMQWVQKMPGKGLKWLGWINTNSEVPKYAEDFRGRFAFSLETSASTAYLQISNLKNEDTATFFCARSFTWGTMDYWGQGTTVTVSSGGGGSGGGGSGGGGSDVVMTQTPLSLPVSLGDQASISCRSSQTLVHSIGNTYLHWYLQKPGQSPKLLIYKVSNRFSGVPDRFSGSGSGTDFTLKISRVEAEDLGVYFCSQSTHVPYTFGGGTKLELK
binding activity relative to negative control: 2.5 times
